Reference: the Immune Epitope Database (IEDB)

Assays:
HLA-B*15:02 = assay: IEDB peptide-MHC binding, purified MHC/competitive/fluorescence; filed as Kd, often an IC50 or EC50 that approximates it; ≥ and ≤ were set here for values at or beyond the usual limits of such assays; details: source organism: Pseudomonas fluorescens
HLA-B*08:01 [1] = assay: IEDB peptide-MHC binding, purified MHC/direct/fluorescence; filed as Kd, often an IC50 or EC50 that approximates it; ≥ and ≤ were set here for values at or beyond the usual limits of such assays; details: source organism: Pseudomonas fluorescens
HLA-A*01:01 [2] = assay: as above
HLA-A*03:01 [3] = assay: as above
HLA-B*35:01 [4] = assay: as above; details: source organism: Pseudomonas fluorescens
HLA-B*15:01 = assay: as above
HLA-A*02:01 [5] = assay: as above
HLA-B*58:01 [6] = assay: as above
HLA-A*69:01 = assay: as above
HLA-B*27:05 = assay: as above
HLA-B*07:02 [7] = assay: as above
HLA-A*11:01 [8] = assay: as above
HLA-B*40:01 = assay: as above
HLA-A*31:01 [9] = assay: as above
HLA-A*02:50 = assay: IEDB peptide-MHC binding, purified MHC/competitive/fluorescence; filed as Kd, often an IC50 or EC50 that approximates it; ≥ and ≤ were set here for values at or beyond the usual limits of such assays; details: source organism: Yersinia pestis Nepal516
HLA-B*46:01 = assay: IEDB peptide-MHC binding, purified MHC/direct/fluorescence; filed as Kd, often an IC50 or EC50 that approximates it; ≥ and ≤ were set here for values at or beyond the usual limits of such assays
HLA-A*02:16 = assay: as above; details: source organism: Yersinia pestis CA88-4125
HLA-A*02:19 = assay: as above; details: source organism: Yersinia pestis CA88-4125
HLA-A*02:12 = assay: as above; details: source organism: Yersinia pestis CA88-4125
HLA-B*18:01 [10] = assay: as above
HLA-A*24:02 [11] = assay: as above; details: source organism: Yersinia pestis
HLA-B*44:02 = assay: as above; details: source organism: Yersinia pestis
HLA-A*02:06 = assay: as above; details: source organism: Yersinia pestis CA88-4125
HLA-A*02:11 = assay: as above; details: source organism: Yersinia pestis CA88-4125
HLA-B*15:17 = assay: IEDB peptide-MHC binding, purified MHC/competitive/fluorescence; filed as Kd, often an IC50 or EC50 that approximates it; ≥ and ≤ were set here for values at or beyond the usual limits of such assays; details: source organism: Listeria monocytogenes serotype 4b str. CLIP 80459
HLA-B*08:03 = assay: IEDB peptide-MHC binding, purified MHC/direct/fluorescence; filed as Kd, often an IC50 or EC50 that approximates it; ≥ and ≤ were set here for values at or beyond the usual limits of such assays; details: source organism: Listeria monocytogenes serotype 4b str. H7858
HLA-B*57:01 = assay: as above; details: source organism: Listeria monocytogenes
HLA-A*68:02 [12] = assay: as above; details: source organism: Listeria monocytogenes
HLA-B*48:01 = assay: as above; details: source organism: Listeria monocytogenes
HLA-B*08:01 [13] = assay: IEDB peptide-MHC binding, purified MHC/competitive/fluorescence; ≥ and ≤ were set here for values at or beyond the usual limits of such assays; details: source organism: Homo sapiens
HLA-A*25:01 = assay: as above; details: source organism: Homo sapiens
HLA-A*01:01 [14] = assay: as above; details: source organism: Homo sapiens
HLA-B*53:01 = assay: as above; details: source organism: Homo sapiens
HLA-A*29:02 = assay: as above; details: source organism: Homo sapiens
HLA-A*03:01 [15] = assay: as above; details: source organism: Homo sapiens
HLA-B*44:03 = assay: as above; details: source organism: Homo sapiens
HLA-B*35:01 [16] = assay: as above; details: source organism: Homo sapiens
HLA-B*18:01 [17] = assay: as above; details: source organism: Homo sapiens
HLA-A*68:02 [18] = assay: as above; details: source organism: Homo sapiens
HLA-A*02:01 [19] = assay: as above; details: source organism: Homo sapiens
HLA-B*58:01 [20] = assay: as above; details: source organism: Homo sapiens
HLA-B*14:02 = assay: as above; details: source organism: Homo sapiens
HLA-A*24:02 [21] = assay: as above; details: source organism: Homo sapiens
HLA-B*07:02 [22] = assay: as above; details: source organism: Homo sapiens
HLA-B*51:01 = assay: as above; details: source organism: Homo sapiens
HLA-A*11:01 [23] = assay: as above; details: source organism: Homo sapiens
HLA-B*37:01 = assay: as above; details: source organism: Homo sapiens
HLA-B*40:02 = assay: as above; details: source organism: Homo sapiens
HLA-A*31:01 [24] = assay: as above; details: source organism: Homo sapiens
[25] = source organism: Pseudomonas fluorescens
[26] = source organism: Yersinia pestis
[27] = source organism: Listeria monocytogenes

FVSVYFSDY
Kd (HLA-B*15:02): 0.04 µM | Kd (HLA-B*08:01 [1]): ≥ 20 µM | Kd (HLA-A*01:01 [2]; [25]): 0.135 µM | Kd (HLA-A*03:01 [3]; [25]): ≥ 20 µM | Kd (HLA-B*35:01 [4]): 0.0654 µM | Kd (HLA-B*15:01; [25]): 0.25 µM | Kd (HLA-A*02:01 [5]; [25]): ≥ 20 µM | Kd (HLA-B*58:01 [6]; [25]): ≥ 20 µM | Kd (HLA-A*69:01; [25]): ≥ 20 µM | Kd (HLA-B*27:05; [25]): ≥ 20 µM | Kd (HLA-B*07:02 [7]; [25]): ≥ 20 µM | Kd (HLA-A*11:01 [8]; [25]): ≥ 20 µM | Kd (HLA-B*40:01; [25]): ≥ 20 µM | Kd (HLA-A*31:01 [9]; [25]): ≥ 20 µM

AMQDPNPEV
Kd (HLA-A*02:50): 0.0011 µM | Kd (HLA-A*01:01 [2]; [26]): ≥ 20 µM | Kd (HLA-A*03:01 [3]; [26]): ≥ 20 µM | Kd (HLA-B*46:01; [26]): ≥ 20 µM | Kd (HLA-A*02:16): ≤ 0.001 µM | Kd (HLA-A*02:19): 0.042 µM | Kd (HLA-B*15:01; [26]): 0.319 µM | Kd (HLA-A*02:12): 0.006 µM | Kd (HLA-B*18:01 [10]; [26]): ≥ 20 µM | Kd (HLA-A*02:01 [5]; [26]): 0.189 µM | Kd (HLA-B*58:01 [6]; [26]): ≥ 20 µM | Kd (HLA-A*69:01; [26]): 5.29 µM | Kd (HLA-B*27:05; [26]): ≥ 20 µM | Kd (HLA-A*24:02 [11]): ≥ 20 µM | Kd (HLA-B*44:02): ≥ 20 µM | Kd (HLA-B*07:02 [7]; [26]): ≥ 20 µM | Kd (HLA-A*02:06): 0.04 µM | Kd (HLA-A*02:11): 0.005 µM | Kd (HLA-A*11:01 [8]; [26]): ≥ 20 µM | Kd (HLA-B*40:01; [26]): ≥ 20 µM | Kd (HLA-A*31:01 [9]; [26]): ≥ 20 µM

EIEIEKNKK
Kd (HLA-B*15:17): ≥ 20 µM | Kd (HLA-A*01:01 [2]; [27]): ≥ 20 µM | Kd (HLA-B*08:03): ≥ 20 µM | Kd (HLA-A*03:01 [3]; [27]): ≥ 20 µM | Kd (HLA-B*46:01; [27]): ≥ 20 µM | Kd (HLA-B*15:01; [27]): ≥ 20 µM | Kd (HLA-B*18:01 [10]; [27]): ≥ 20 µM | Kd (HLA-B*57:01): ≥ 20 µM | Kd (HLA-A*68:02 [12]): ≥ 20 µM | Kd (HLA-A*02:01 [5]; [27]): ≥ 20 µM | Kd (HLA-B*58:01 [6]; [27]): ≥ 20 µM | Kd (HLA-B*27:05; [27]): ≥ 20 µM | Kd (HLA-B*07:02 [7]; [27]): ≥ 20 µM | Kd (HLA-B*48:01): ≥ 20 µM | Kd (HLA-A*11:01 [8]; [27]): ≥ 20 µM | Kd (HLA-B*40:01; [27]): ≥ 20 µM | Kd (HLA-A*31:01 [9]; [27]): ≥ 20 µM

MVRVLTVIKEY
IC50 (HLA-B*08:01 [13]): ≥ 20 µM | IC50 (HLA-A*25:01): 1.29 µM | IC50 (HLA-A*01:01 [14]): ≥ 20 µM | IC50 (HLA-B*53:01): ≥ 20 µM | IC50 (HLA-A*29:02): 0.0053 µM | IC50 (HLA-A*03:01 [15]): ≥ 20 µM | IC50 (HLA-B*44:03): ≥ 20 µM | IC50 (HLA-B*35:01 [16]): 0.0205 µM | IC50 (HLA-B*18:01 [17]): 2.77 µM | IC50 (HLA-A*68:02 [18]): ≥ 20 µM | IC50 (HLA-A*02:01 [19]): ≥ 20 µM | IC50 (HLA-B*58:01 [20]): ≥ 20 µM | IC50 (HLA-B*14:02): ≥ 20 µM | IC50 (HLA-A*24:02 [21]): ≥ 20 µM | IC50 (HLA-B*07:02 [22]): ≥ 20 µM | IC50 (HLA-B*51:01): ≥ 20 µM | IC50 (HLA-A*11:01 [23]): 0.833 µM | IC50 (HLA-B*37:01): ≥ 20 µM | IC50 (HLA-B*40:02): ≥ 20 µM | IC50 (HLA-A*31:01 [24]): ≥ 20 µM
